Source: patent US11110182B2, “Multifunctional RNA nanoparticles and methods for treating cancer and therapeutic resistant cancer” (University of Cincinnati, priority 2016, dated 2021)

B1: pRNA-HER2apt-siMED1: 3-WJ pRNA nanoparticle bearing a HER2-targeting RNA aptamer and two different MED1 siRNAs; strands p1 SEQ ID NO: 3, p2 SEQ ID NO: 4 (nucleic acid)
chain 1: GGACAGUGAAAGUGAGUCAAAGGAUCAAUCAUGGCCAAAGAUGUUACUUUGAGAGCCUU
chain 2: GGCUCUCAAAGUAACAUCUAAGGCCAUGUGUAUGUGGGGGGAGGACGAUGCGGUCUGCUGUGCUUGAUAUGCCCCAGACGACUCGCCCCCCACAUACUUUGUUGAUCCAAUGACUCACUUUCACUGUCCUU
modifications: 2'-F modification; third strand may lack entry; pRNA-HER2apt-siMED1, p1; pRNA-HER2apt-siMED1, p2
B2: pRNA-HER2apt^mut-siMED1: control pRNA nanoparticle with mutant HER2 aptamer; strands p1 SEQ ID NO: 5, p2 SEQ ID NO: 6 (nucleic acid)
chain 1: B1 chain 1
chain 2: GGCUCUCAAAGUAACAUCUAAGGCCAUGUGUAUGUGGGAUGAGGAGUAUGAAGAUACCUGUACUUGAUAUGCCCCAGACGACAUUCCCCCCACAUACUUUGUUGAUCCAAUGACUCACUUUCACUGUCCUU
modifications: pRNA-HER2apt(mut)-siMED1, p1; pRNA-HER2apt(mut)-siMED1, p2

System: BT474 orthotopic xenograft tumors
Assay: In vivo targeting and biodistribution imaging of AF647-labeled nanoparticles
Set-up: species or system mice
Details: for signals in liver and kidney, biodistribution: AF647 fluorescence of excised organs; for accumulation in the xenograft tumors, biodistribution of excised organs and tumors: AF647 fluorescence of excised tumors; for localization in frozen tumor sections (penetration to tumor cells): confocal microscopy, microvessels stained with anti-CD31
Procedure: FIG. 2A) Confocal microscopy analyses of the internalization of AF647-labeled control and pRNA-HER2apt-siMED1 nanoparticles by BT474 cells. Scale bar: 10 μm. FIG. 2B) Flow cytometry assays of the cellular uptake of AF647-labeled control and pRNA-HER2apt-siMED1 nanoparticles by BT474 cells. FIG. 2C) IVIS Lumina live imaging of BT474 orthotopic xenograft mice 24 hrs after i.v. injection of indicated AF647-labeled pRNA nanoparticles (10 mg/Kg). FIG. 2D) Major organs and tumors of above mice were excised and imaged for AF647 fluorescence. FIG. 2E) Frozen tumor sections were examined for localization of AF647-labeled pRNA nanoparticles (red) using confocal microscopy. The blood vessels were stained with anti-CD31 primary antibody and Alexa488-conjugated secondary antibody (green). The nuclei were stained with DAPI (blue). Scale bar: 50 μm. FIG. 2F) The fluorescence intensity of AF647-labeled pRNA nanoparticles (red) in frozen tumor sections was quantified with Image-pro Plus software.
Migration and metastasis assay. The 8-μm-pore-size polycarbonate membrane, which separates the two chambers of a 6.5-mm Transwell (Costar), was coated with or without 1:8 DMEM-diluted Matrigel (Corning). Transwell assay was performed as previously described.^57 Briefly, BT474 cells were treated with pRNAs alone or together with 4-hydroxy-tamoxifen (4-OHT) for 48 h and starved with serum-free DMEM containing 0.2% BSA overnight. On the next day, cells were collected and 2×10^5 cells were seeded to the upper chamber of Transwell. The lower chamber was filled with 600 μL DMEM medium containing 10% FBS. After incubation at 37° C. for 24 h, cells on the membranes were fixed and stained with 0.1% crystal violet in 20% ethanol solution. Cells at top side of membranes were removed completely, and cells at the bottom side were examined with an Olympus SZX12 microscope and counted. • Mammosphere culture and breast cancer stem cell analyses. BT474 cells were treated with pRNAs for 48 h. Then, cells were suspended in DMEM/F12 medium supplemented with 1×B27 (Thermo Fisher), 20 ng/mL bFGF and 20 ng/mL EGF (R&D), and added into 24-well ultralow attachment plates. After treatment with or without 1 μM 4-OHT for 7 days, mammosphere formation was recorded using an Axiovert S100 TV inverted microscope (Zeiss). Xenograft tumor tissues were cut into small pieces and digested with trypsin and collagenase at 37° C. for 1 h, and tumor cells were collected and rinsed with pre-cold PBS. All cells were stained with FITC-conjugated anti-CD44 antibody and PE-conjugated anti-CD24 antibody (BD Pharmingen) in the dark on ice for 30 min. After resuspension with 0.5 mL PBS buffer, CD44^+/CD24^−/low cell population was analyzed by flow cytometry. • Orthotopic xenograft breast tumor mouse model, in vivo imaging and anti-tumor therapy. Six-week-old female athymic nude mice were purchased from Charles River Laboratories, and all animal procedures were performed under IACUC-approved protocols at the University of Cincinnati. Athymic nude mice were orthotopically injected with 1×10^7 BT474-luc cells mixed with matrigel into the fat pads of the forth pair of mammary glands. When the tumor sizes reached 100-150 mm^3, the mice were randomly divided into four groups (4/group) and intravenously (i.v.) injected with pRNAs (4 mg/Kg) once a week for three weeks. For tamoxifen treatments, 0.5 mg tamoxifen (Sigma) dissolved in sesame oil was intraperitoneally (i.p.) injected into mice 5 days a week for three weeks. The tumor volume was monitored every 3 days, and tumor size was calculated using the formula: volume=0.5×(width)^2×(length). For in vivo pRNA nanoparticle targeting and tumor imaging, mice were i.v. injected with AF647-conjugated pRNA nanoparticles or i.p. injected with D-luciferin and imaged using the IVIS Lumina imaging system with Living Images 3.0 software (Caliper Life Sciences). […]

Molecule | accumulation in the area of the xenograft tumor, live animal imaging (AF647-conjugated, 10 mg/Kg i.v., 24 hrs) | signals in liver and kidney, biodistribution | accumulation in the xenograft tumors, biodistribution of excised organs and tumors | localization in frozen tumor sections (penetration to tumor cells)
B1 | strongly accumulated | low levels of residual signals | predominant accumulation | very effectively penetrated to tumor cells
B2 |  | low levels of residual signals | not | remained in the microvessels
